Five molecules from patent publication US20210214434A1 (LABORATOIRE FRAN AIS DU FRACTIONNEMENT ET DES …, published 2021) can be followed below.

Assay [1] concerns the target T1, human CD64 receptor expressed by Jurkat cells (Jurkat-CD64) (human, UniProt P12314 16-374). As to the kind of experiment: cell-based or functional assay.
In assay [2] the target is T2, CD32b (UniProt P31994 43-310, limits assumed).
T2 construct: probably on transfected cells as for CD32a
T2 sequence (looked up): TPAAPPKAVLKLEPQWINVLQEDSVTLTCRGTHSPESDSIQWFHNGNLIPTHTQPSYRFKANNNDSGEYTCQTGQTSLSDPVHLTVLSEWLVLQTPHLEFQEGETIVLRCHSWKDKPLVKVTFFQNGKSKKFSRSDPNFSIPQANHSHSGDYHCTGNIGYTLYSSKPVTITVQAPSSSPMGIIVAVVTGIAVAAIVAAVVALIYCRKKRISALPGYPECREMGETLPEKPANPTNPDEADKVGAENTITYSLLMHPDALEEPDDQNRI
Put plainly: competition assay, protocol and competitor for CD32b not described.

The target in assay [3] is T3, HisTag hCD16aV receptor (R&D System) (human, UniProt P08637 17-208).
T3 construct: Captured on anti-Penta-HIS biosensors; also called human FcγRIIIa-V; FcγRIIIa (CD16a); not shown: HisTag
As to the kind of experiment: BLI (Octet), HisTag hCD16aV on anti-Penta-HIS biosensors, 1/1 model; SD 18.1. The method, then: (§1) The molecules were tested at concentrations of 1000, 500, 250, 125, 62.5, 31, […] and 0 nM in kinetic buffer.
(§2) The association and dissociation curves (first 5 s) are used to calculate the kinetic constants of association (kon) and dissociation (koff) using a 1/1 association model. KD (nM) is then calculated […].

Assay [4] deals with T4, human CD32aH receptor on transfected HEK cells (HEK-CD32) (human, UniProt P12318 34-317).
T4 construct: whole, on cells; also called hCD32aH; FcγRIIa (CD32a)
T4 sequence (looked up): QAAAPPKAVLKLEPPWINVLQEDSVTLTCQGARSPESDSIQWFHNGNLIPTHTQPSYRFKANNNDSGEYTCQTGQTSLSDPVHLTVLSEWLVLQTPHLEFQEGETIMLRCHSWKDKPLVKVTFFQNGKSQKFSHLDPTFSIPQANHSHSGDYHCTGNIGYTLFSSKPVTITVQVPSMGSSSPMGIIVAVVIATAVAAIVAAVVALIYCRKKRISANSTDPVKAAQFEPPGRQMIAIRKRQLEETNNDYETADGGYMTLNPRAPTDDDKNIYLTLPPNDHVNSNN
As to the kind of experiment: flow cytometry competition on HEK-CD32 cells, displacement of Rituxan-A488 (30 µg/ml). The method, then:
(§3) The cells are then washed by adding 100 μl of PBS at pH 6 and centrifuged at 1700 rpm for 3 minutes at 4° C. The supernatant is then removed and 300 μl of cold PBS is added at pH 6.
In general terms: In flow cytometry, cells or beads pass a laser one at a time.

Assay [5] concerns the target T5, human CD32aR receptor on transfected HEK cells (HEK-CD32) (human, UniProt P12318 34-317).
T5 construct: whole, on cells; also called hCD32aR; FcγRIIa (CD32a)
T5 sequence (looked up): T4 sequence (looked up) with H134R
The assay is described as above. As to the method: as §3

In assay [6] the target is T1, human CD64 receptor expressed by Jurkat …. Put plainly: flow cytometry competition on Jurkat-CD64 cells, displacement of Rituxan-A488 (25 µg/ml).
Assay [7] has as its target T6, human CD16aH receptor on transfected Jurkat cells (Jurkat-CD16aH) (human, UniProt P08637 17-254).
T6 construct: whole, on cells; also called hCD16aH; CD16a-F
As to the kind of experiment: flow cytometry competition on Jurkat-CD16aH cells, displacement of mAb 3G8-PE (0.5 µg/ml). As to the method:
The Jurkat-CD16aH cells are seeded in a 96-well plate (V bottom) at a concentration of 2.10⁵ cells per well.
The cells are then washed by adding […] of PBS at pH 6 and centrifuged at 1700 rpm for 3 minutes at 4° C. The supernatant is then removed and 300 μl of cold PBS is added at pH 6.

In assay [8] the target is T7, human FcRn receptor expressed by Jurkat cells (Jurkat-FcRn) (human, UniProt P55899 24-365; P61769 21-119).
T7 construct: whole, on cells; also called hFcRn
Put plainly: flow cytometry competition on Jurkat-FcRn cells, displacement of Rituxan-A488 (25 µg/ml), pH 6. As to the method: The Jurkat-FcRn cells are seeded in a 96-well plate (V bottom) at a concentration of 2.10⁵ cells per well.
as §3

For assay [9], the target named is T3, HisTag hCD16aV receptor (R&D System). Put plainly: BLI (Octet), HisTag hCD16aV on anti-Penta-HIS biosensors, 1/1 model; SD 7.7. The method, then:
as §1, §2
In general terms: BLI is a label-free optical method that tracks binding on a fibre tip over time.

Assay [10] shares this target. As to the kind of experiment: BLI (Octet), HisTag hCD16aV on anti-Penta-HIS biosensors, 1/1 model; SD 10.7. The method, then:
as §1, §2

Assay [11] addresses complement proteins, in particular C1q (complement of the young rabbit serum used in the CDC test) (rabbit). As to the kind of experiment: cell-based or functional assay.
The target in assay [12] is T3, HisTag hCD16aV receptor (R&D System). As to the kind of experiment: BLI (Octet), HisTag hCD16aV on anti-Penta-HIS biosensors, 1/1 model; SD 14.1.
Assay [13] deals with T8, HisTag hCD32aH receptor (PX therapeutics) (human, UniProt P12318 34-217, limits assumed).
T8 construct: Captured on anti-Penta-HIS biosensors; also called FcγRIIa (CD32a); not shown: HisTag
T8 sequence (looked up): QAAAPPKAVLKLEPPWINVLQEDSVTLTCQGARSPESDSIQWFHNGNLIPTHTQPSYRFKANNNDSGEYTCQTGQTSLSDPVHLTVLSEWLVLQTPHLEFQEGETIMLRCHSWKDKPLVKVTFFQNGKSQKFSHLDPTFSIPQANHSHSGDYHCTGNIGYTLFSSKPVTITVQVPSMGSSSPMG
Put plainly: BLI (Octet), HisTag hCD32aH on anti-Penta-HIS biosensors, 1/1 model; SD 29.7.

Assay [14] has as its target biotinylated human FcRn receptor (hFcRn), immobilized on Streptavidin Biosensors (human, UniProt P55899 24-297; P61769 21-119, limits assumed, biotinylated (site not stated)). As to the kind of experiment: BLI (Octet), biotinylated hFcRn on streptavidin biosensors, pH 6, 1/1 model; SD 0. As to the method:
The association and dissociation curves (first 10 s) are used to calculate the kinetic constants of association (kon) and dissociation (koff) using a 1/1 association model. KD (nM) is then calculated […].

Residue numbers refer to the chain shown, from its start. In names and notes the source's numbering stands. Some results are limits rather than exact numbers.

T1 sequence (P12314 16-374): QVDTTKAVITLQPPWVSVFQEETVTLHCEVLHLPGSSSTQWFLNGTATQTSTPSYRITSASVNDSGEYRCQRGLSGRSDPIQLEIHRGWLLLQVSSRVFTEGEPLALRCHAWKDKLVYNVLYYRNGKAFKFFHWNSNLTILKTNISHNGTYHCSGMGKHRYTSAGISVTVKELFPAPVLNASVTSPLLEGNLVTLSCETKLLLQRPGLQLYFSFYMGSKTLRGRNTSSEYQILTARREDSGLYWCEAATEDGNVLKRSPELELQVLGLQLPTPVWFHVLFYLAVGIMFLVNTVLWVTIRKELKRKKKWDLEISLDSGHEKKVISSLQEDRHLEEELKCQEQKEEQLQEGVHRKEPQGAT
T3 sequence (P08637 17-208 F176V limits assumed): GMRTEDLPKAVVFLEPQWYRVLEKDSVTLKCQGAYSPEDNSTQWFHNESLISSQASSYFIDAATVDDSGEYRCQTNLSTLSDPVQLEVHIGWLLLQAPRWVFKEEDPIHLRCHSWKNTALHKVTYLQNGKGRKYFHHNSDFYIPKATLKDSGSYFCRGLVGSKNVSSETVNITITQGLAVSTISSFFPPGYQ
T7 sequence (P55899 24-365, chain 1 of 2): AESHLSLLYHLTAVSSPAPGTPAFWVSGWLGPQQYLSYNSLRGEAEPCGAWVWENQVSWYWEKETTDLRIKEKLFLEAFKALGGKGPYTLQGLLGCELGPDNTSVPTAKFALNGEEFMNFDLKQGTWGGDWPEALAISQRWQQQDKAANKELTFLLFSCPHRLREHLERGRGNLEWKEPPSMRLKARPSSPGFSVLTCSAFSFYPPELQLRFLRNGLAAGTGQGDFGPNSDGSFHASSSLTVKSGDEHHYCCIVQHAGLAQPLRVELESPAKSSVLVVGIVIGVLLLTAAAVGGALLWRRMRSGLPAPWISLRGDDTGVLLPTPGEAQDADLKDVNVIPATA
T7 sequence (P61769 21-119, chain 2 of 2): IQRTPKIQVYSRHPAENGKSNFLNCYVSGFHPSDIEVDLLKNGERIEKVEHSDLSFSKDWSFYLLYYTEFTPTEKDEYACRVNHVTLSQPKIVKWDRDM
biotinylated human FcRn receptor (hFcRn), immobilized on Streptavidin Biosensors, sequence (P55899 24-297 limits assumed, chain 1 of 2): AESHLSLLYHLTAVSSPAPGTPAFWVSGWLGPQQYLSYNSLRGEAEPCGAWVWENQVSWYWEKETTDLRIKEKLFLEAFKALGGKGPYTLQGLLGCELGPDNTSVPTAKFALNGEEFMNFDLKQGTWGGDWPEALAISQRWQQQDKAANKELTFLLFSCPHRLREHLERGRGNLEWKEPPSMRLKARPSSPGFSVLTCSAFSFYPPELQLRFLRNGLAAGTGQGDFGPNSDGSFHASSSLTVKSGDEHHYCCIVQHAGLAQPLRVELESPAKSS
biotinylated human FcRn receptor (hFcRn), immobilized on Streptavidin Biosensors, sequence (P61769 21-119 limits assumed, chain 2 of 2): as the sequence (P61769 21-119, chain 2 of 2) above
T6 sequence (P08637 17-254): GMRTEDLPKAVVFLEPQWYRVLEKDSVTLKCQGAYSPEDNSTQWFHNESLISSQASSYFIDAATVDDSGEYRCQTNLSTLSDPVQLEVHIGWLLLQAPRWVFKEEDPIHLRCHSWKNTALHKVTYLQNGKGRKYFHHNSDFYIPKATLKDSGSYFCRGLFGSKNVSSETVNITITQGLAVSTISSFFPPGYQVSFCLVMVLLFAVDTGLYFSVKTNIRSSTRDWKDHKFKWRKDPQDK

B1: A3A-184AY_CHO (K334N/P352S/A378V/V397M/N434Y), Fc variant produced in CHO cells (other)
chain: DKTHTCPPCPAPELLGGPSVFLFPPKPKDTLMISRTPEVTCVVVDVSHEDPEVKFNWYVDGVEVHNAKTKPREEQYNSTYRVVSVLTVLHQDWLNGKEYKCKVSNKALPAPIENTISKAKGQPREPQVYTLSPSRDELTKNQVSLTCLVKGFYPSDIVVEWESNGQPENNYKTTPPMLDSDGSFFLYSKLTVDKSRWQQGNVFSCSVMHEALHYHYTQKSLSLSPGK
notes: also called Fc A3A-184AY CHO
Turning to B1, the “Inhibition of the secretion of IL-2 of the Jurkat cells transfected with CD64 (IC 25%, nM)” value (from here on “Inhibition of the secretion … (IC 25%, nM)”) in assay [1] stood at 448 nM. Also, in assay [1], the “Inhibition of the secretion of IL-2 of the Jurkat cells transfected with CD64 (IC 50%, nM)” value (shortened to “Inhibition of the secretion … (IC 50%, nM)”) amounted to 600 nM. For the same molecule, the IC50 amounted to 57 nM in [2]; 135 nM in assay [4]; 176 nM in assay [5]; 84 nM in assay [6]; 262 nM in assay [7]; 13 nM in [8]. Also, the Kd in [3] was 80.3 nM.

B2: A3A-184EY_CHO (Y296W/K334N/P352S/A378V/V397M/N434Y), Fc variant produced in CHO cells (other)
chain: B1 chain with Y76W
notes: probably a misprint; also called Fc A3A-184EY CHO
For B2, the “Inhibition of the secretion … (IC 25%, nM)” value in [1] was 442 nM. In addition, the “Inhibition of the secretion … (IC 50%, nM)” value in assay [1] was found to be 600 nM. Further, the IC50 in assay [2] was determined as 55 nM; in assay [4] it was 147 nM; in assay [5], 132 nM; in assay [6], 70 nM; in [8], 15 nM. Further, binding in assay [9] was put at a Kd of 59.3 nM.

B3: Fc MST-HN fragment containing the mutations M252Y/S254T/T256E/H433K/N434F, produced in HEK-293 cells (other, UniProt P01857-1 104-330, looked up, name in EU numbering)
chain: B1 chain with M32Y, S34T, T36E, N114K, S132P, V158A, M177V, H213K, Y214F
Turning to B3, in assay [1], the “Inhibition of the secretion … (IC 25%, nM)” value came to 1460 nM and the “Inhibition of the secretion … (IC 50%, nM)” value was less than 1950 nM. The IC50 in assay [6] was determined as 494 nM. Further, the IC50 in [8] worked out at 14 nM.

B4: A3A-184AY_TGg, Fc variant A3A-184AY produced in the transgenic goat (other)
chain: B1 chain
With B4, the IC50 in [2] is 59 nM; in assay [4], 170 nM; in assay [6], 87 nM; in [8] it was 12 nM. Further, the Kd in [10] is 51.2 nM.

B5: Fc variant A3A-184AY (HEK) (K334N/P352S/A378V/V397M/N434Y), produced in HEK293 cells (other)
chain: B1 chain
notes: also called Fc A3A 184AY (HEK); rFc A3A-184AY
As to B5, the “IC50 (read off the curve)” value in assay [11] was approximately 200 nM. Moreover, the Kd in assay [12] was 132 nM; in assay [13] it was 313 nM; in [14] it was 7.8 nM.

For orientation: IC50 means the concentration needed to halve the response being measured. Low values mean greater potency in that assay, high ones weaker potency in that assay. What is called Kd is the free concentration of one partner at which half of the binding sites on the other are occupied at equilibrium, for simple one-to-one binding. Read a low Kd as tighter binding.
